Experimental data from the supplement of paper PMC9170038.

Test system: MS2 coat protein
Assay: apparent KD of MS2 coat protein; designed switch direction (-1 OFF switch, 1 ON switch): -1; higher = weaker reporter binding
Procedure, shortened: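 SNAP-549-labelled MS2 coat protein was titrated, doubling from 0.7 or 1.5 nM to 3 µM, over designed RNA switches transcribed on Illumina chips by stalled E. coli RNA polymerase. Runs were done without input, with 200 uM small-molecule ligand, or with an oligonucleotide input. Apparent KD is the per-design median over clusters of curve-fitted normalised fluorescence.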

[1] = Eterna round: R95, input ligand: microRNA oligo, concentration not stated
[2] = input ligand: microRNA oligo, concentration not stated
[3] = Eterna round: R95, input ligand: FMN 200 uM
[4] = Eterna round: R95, input ligand: none

Sequence	apparent KD of MS2 coat protein (input ligand: FMN 200 uM) [nM]	apparent KD of MS2 coat protein (input ligand: none) [nM]	apparent KD of MS2 coat protein [2] [nM]	further results
AGCAAGUUAAGGUUGAUGCACAUGAGGAUCACCCAUGUUCGUCUUACAUGGAAAGUGGACGCGUUUAUGGAAAGGAG [Eternabot (L2) Solution 36] (Eterna round: R97, puzzle: Sensor, turn-off variant 1)	28.2	28.2	–	–
AGCAGACGAGGAUAUAGAUUUAGAUACAUGAGGAUCACCCAUGUAUACAUGUAUUUAGAUUUAGAAGGCGUCUGCU [E5/14-A1] (Eterna round: R97, puzzle: Exclusion 5)	1250	1340	–	–
AGCAUGCUAGGAUAUACGGGACAUUAGGGUUCGUCGUAUGGACAUGAGGAUCACCCAUGUAGAAGGAGCGUGCA [Mat - Exclusion 2 - Mod of Hyphema - D93] (puzzle: Exclusion 2)	–	–	–	apparent KD of MS2 coat protein [1]: 19.9 nM
AGCCACAGAGGAUAUACAUACAUCCAGUAGUUAAGAAUAUUACAUGAGGAUCACCCAUGUAGAAGGCUGUGGCA [Omei Ex2 BD B7] (Eterna round: R97, puzzle: Exclusion 2)	352	35.4	–	–
AGCCUGUAAGUAGGAUAUAUGAUCAGGAAUGAAAUAGAAGGGCUUAGUGGACAUGAGGAUCACCCAUGUCAAUGGGUUCAUGCA [Edria] (Eterna round: R96, puzzle: Exclusion NG 1)	15	22.5	16	–
AGCGAGGUAGGAUAUACAUGAGGAUCACCCAUGUGCUUGUAUGGCGUGGAACAUCGUAGUAGAAGGGCCGCGCC [EX3 #76] (Eterna round: R97, puzzle: Exclusion 3)	21.9	20.9	–	–
AGCUAGAUAGGAUAUGCCCGGGAUAACAUGAGGAUCACCCAUGUGACCGAUUCAUGUCCUGCAGAAGGGUUUGGGA [Mod of ViennaUCT 7 - Jieux - Exclusion 5] (Eterna round: R97, puzzle: Exclusion 5)	15.1	12.7	–	–
AGCUAGUCAGGAUAUUCUAAAUAUUACAUGAGGAUCACCCAUGUGAAUGGACAAGGGUGUGAAGAAGGGACUAGCG [Omei Ex5 A12] (Eterna round: R97, puzzle: Exclusion 5)	262	959	–	–
AGCUAGUCAGGAUAUUCUAUUAAUUACAUGAGGAUCACCCAUGUGAAUGGACGAGGGUGUGAAGAAGGGACUAGCG [Omei Ex5 A17] (Eterna round: R97, puzzle: Exclusion 5)	94.4	226	–	–
AGCUGUGGCCGAGGAUAUACAUGAGGAUCACCCAUGUUACAUAAUUAGGCCUGGUAACAGGCUCCGUAGAAGGCGGUCUCAGCA [Eli eng2 - 005] (Eterna round: R96, puzzle: Exclusion NG 2)	13	15.3	11.4	–
AGCUGUGGCCGAGGAUAUCUAACAAUCCAAACCGAAAUAUAAUCGGACAUGAGGAUCACCCAUGUAGAGAAGGCGGUCUCAGCA [Eli eng2 - 075] (Eterna round: R96, puzzle: Exclusion NG 2)	–	–	32.7	–
AGCUGUGGCCGAGGAUAUCUAAUAUCUCAAACCGAAAUAUAAUCGGACAUGAGGAUCACCCAUGUAGAGAAGGCGGUCUCAGCA [Eli eng2 - 064] (Eterna round: R96, puzzle: Exclusion NG 2)	–	–	23.6	–
AGCUGUGGCCGAGGAUAUCUAUCCAAAAUAACCGAAAUAUAAUCGGACAUGAGGAUCACCCAUGUAGAGAAGGCGGUCUCAGCA [Eli eng2 - 087] (Eterna round: R96, puzzle: Exclusion NG 2)	–	–	18.6	–
AGGAAGCAAGGAUAUACGAGGAGAAGGUGGAGAUUUAAAGGACAUGAGGAUCACCCAUGUAGAAGGUGCGAGAA [JR_Exclu2_Sub046] (puzzle: Exclusion 2)	–	–	–	apparent KD of MS2 coat protein [3]: 79.6 nM; apparent KD of MS2 coat protein [1]: 44.3 nM; apparent KD of MS2 coat protein [4]: 50.4 nM
AGGCGCUCUGUUAGGAUAUUUGCUGACUACUAGGCGGAGAAGGAACAUGAGGAUCACCCAUGUAUACGAUCCGC [BmEX4 C.16] (Eterna round: R97, puzzle: Brourd's mod of Exclusion 4)	13.7	12.1	–	–
AGGGAACGAGGAUAUCGAUGGUGGAACAUGAGGAUCACCCAUGUAUGAGAUAGAGUAGGGCGAGAAGGCGUUAAGA [JR_E5_Sub051] (puzzle: Exclusion 5)	–	–	–	apparent KD of MS2 coat protein [3]: 47.6 nM; apparent KD of MS2 coat protein [1]: 55.6 nM; apparent KD of MS2 coat protein [4]: 84.9 nM
AGGGAAGAGUGAGGAUAUGGAAAUUUGGUGAGAACAUGAGGAUCACCCAUGUGGAAACAAGAAAAUUAGAAGGUAUAGGGAGGG [AK ExNG2-1.2] (Eterna round: R96, puzzle: Exclusion NG 2)	48	61.3	45.3	–
AGGGACUAAGGAUAUACUUAGGAGAUAAACGACUGGUGAACACUUGAGGAUCACCCAAGUAGAAGGUAGUCAAA [Enonsoor] (Eterna round: R97, puzzle: Exclusion 2)	135	30.4	–	–
